# Measurements as given in patent US20100221248A1 (MIT, published 2010).
# T1: human FcγRIIA, 131H allele, soluble (human, UniProt P12318 34-217, limits assumed)
# T1 construct: also called hFcγRIIA
# T1 sequence (looked up): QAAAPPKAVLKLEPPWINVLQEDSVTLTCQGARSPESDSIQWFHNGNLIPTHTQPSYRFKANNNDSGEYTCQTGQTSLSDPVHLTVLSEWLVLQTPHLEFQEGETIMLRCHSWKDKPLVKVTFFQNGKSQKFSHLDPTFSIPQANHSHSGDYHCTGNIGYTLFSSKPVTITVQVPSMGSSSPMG
# T2: human FcγRIIA, 131R allele, soluble (human, UniProt P12318 34-217, limits assumed)
# T2 construct: also called hFcγRIIA
# T2 sequence (looked up): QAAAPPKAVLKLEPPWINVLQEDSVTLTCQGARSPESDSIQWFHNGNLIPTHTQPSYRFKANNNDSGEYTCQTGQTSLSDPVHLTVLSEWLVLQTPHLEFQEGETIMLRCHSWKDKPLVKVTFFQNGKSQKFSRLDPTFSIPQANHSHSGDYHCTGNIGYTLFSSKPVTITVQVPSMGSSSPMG
# T3: human FcγRIIB, soluble (human, UniProt P31994 43-217, limits assumed)
# T3 construct: also called hFcγRIIB
# T3 sequence (looked up): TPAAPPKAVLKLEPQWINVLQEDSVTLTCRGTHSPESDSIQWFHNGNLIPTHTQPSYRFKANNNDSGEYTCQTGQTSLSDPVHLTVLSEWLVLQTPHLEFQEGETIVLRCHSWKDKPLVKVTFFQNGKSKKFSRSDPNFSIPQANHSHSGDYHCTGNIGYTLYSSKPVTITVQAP
# Legend:
# [1] = target: T4, RIIB tetramer (biotinylated human FcγRIIB complexed to streptavidin-PE) (human, UniProt P31994 43-217; P22629 37-163, limits assumed, PE conjugate; singly biotinylated); experiment: flow cytometry titration of yeast surface-displayed IIA726 with streptavidin-PE RIIB tetramer, 2 h at room temperature
# T4 construct: Biotinylated FcR incubated with streptavidin-PE at a 4:1 molar ratio; also called PE-tagged RIIB tetramer
# Experimental: (§1) The yeast cells were washed and analyzed by flow cytometry.
# (§2) Characterization of Individual Clones. Plasmid DNA was recovered from the later library generations (Zymoprep II kit) and transformed into competent DH5a bacteria (Invitrogen). Individual colonies (usually ten) were grown, miniprepped, and sequenced, as well as re-transformed into EBY100 yeast (EZ Yeast Transformation Kit, Zymo Research). The resulting clones were cultured in SD-CAA and induced in SG-CAA for analysis. To rapidly compare different clones, 0.1 OD.ml aliquots of yeast were labeled with a low and a high concentration of PE-tagged RIIA (1 nM, 30 nM) or RIIIA (0.3 nM, 10 nM) tetramer for 1 hour at RT prior to flow cytometry (Coulter Epics XL). The apparent tetramer Kd was estimated from the ratio of the two mean fluorescence readings. […] The labeling volumes (in PBSA) were chosen to give at least a 10-fold excess of FcR over Fn3. The yeast cells were centrifuged and washed with 0.5 ml PBSA for analysis by flow cytometry. The Kd value was determined by fitting the data to the equation y=A[tetramer]/([tetramer]+Kd)+B.
# [2] = target: T5, RIIA131R tetramer (biotinylated human FcγRIIA 131R complexed to streptavidin-PE) (human, UniProt P12318 34-217; P22629 37-163, limits assumed, PE conjugate; singly biotinylated); experiment: yeast display titration with PE-tagged tetramer, flow cytometry; apparent (avid) Kd; parent clone IIA726 from the seventh FACS sort
# T5 construct: Biotinylated FcR incubated with streptavidin-PE at a 4:1 molar ratio; Kd values measured against it are apparent (avid) values; also called RIIA tetramer; PE-tagged RIIA tetramer
# Experimental: as §1, §2
# [3] = target: T5, RIIA131R tetramer (biotinylated human …); experiment: flow cytometry titration of yeast surface-displayed IIA726 with streptavidin-PE RIIA131R tetramer, 2 h at room temperature
# Experimental: as §1, §2
# [4] = target: T4, RIIB tetramer (biotinylated human …); experiment: yeast display, flow cytometry with PE-tagged tetramer
# [5] = target: T5, RIIA131R tetramer (biotinylated human …); experiment: yeast display with PE-tagged tetramer, flow cytometry; apparent (avid) Kd; clone IIA827, IIA726 with the single mutation printed 188S
# Experimental: as §2
# [6] = target: T6, human FcγRIIIA on the surface of human peripheral blood mononuclear cells (non-lymphocyte gate) (human, UniProt P08637 17-254); experiment: flow cytometry of human PBMCs with biotinylated MBP-Fn3 complexed to streptavidin-PE
# T6 construct: whole, on cells; The target is inferred from the stated aim of the experiment, which was recognition of FcRs expressed on cell surfaces; also called RIIIA on PBMCs
# From the text: To determine whether the Fn3 domains were able to recognize FcRs expressed on cell surfaces, each MBP-Fn3 fusion protein was biotinylated, complexed with streptavidin-PE and used to label human peripheral blood mononuclear cells (PBMCs).
# [7] = target: T1, human FcγRIIA, 131H allele, soluble; experiment: SPR (Biacore T100), MBP-Fn3 immobilized, soluble FcR injected
# Experimental: (§3) Surface Plasmon Resonance Analysis. Steady state affinity measurements were performed on a Biacore T100 biosensor. MBP-Fn3 fusion proteins were immobilized to CM5 sensor chips (Biacore) by standard amine coupling. […] Dissociation constants were calculated after subtraction of background binding to a control flow cell using Biacore T100 Evaluation software.
# [8] = target: T2, human FcγRIIA, 131R allele, soluble; experiment: as above
# Experimental: as §3
# human FcγRIIB, soluble = target: T3, human FcγRIIB, soluble; experiment: as above
# Experimental: as §3
# [9] = target: T1, human FcγRIIA, 131H allele, soluble; experiment: SPR (Biacore T100), steady state, MBP-Fn3 immobilized, soluble FcR injected
# Experimental: as §3
# [10] = target: T2, human FcγRIIA, 131R allele, soluble; experiment: as above
# Experimental: as §3
# T5 sequence (P22629 37-163 limits assumed, one chain of several): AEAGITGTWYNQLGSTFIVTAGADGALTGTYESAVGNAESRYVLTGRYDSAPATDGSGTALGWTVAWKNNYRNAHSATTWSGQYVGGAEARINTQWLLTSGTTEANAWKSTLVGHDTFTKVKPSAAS
# T4 sequence (P22629 37-163 limits assumed, one chain of several): as above
# T6 sequence (P08637 17-254): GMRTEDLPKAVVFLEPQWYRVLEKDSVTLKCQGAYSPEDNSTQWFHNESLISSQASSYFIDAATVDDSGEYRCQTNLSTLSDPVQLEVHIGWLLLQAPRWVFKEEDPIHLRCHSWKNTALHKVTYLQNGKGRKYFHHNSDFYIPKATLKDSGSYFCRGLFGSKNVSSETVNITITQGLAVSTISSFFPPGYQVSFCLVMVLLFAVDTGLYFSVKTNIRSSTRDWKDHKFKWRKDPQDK
Binder,binding result [6],binding result [7],binding result [8],"binding result (human FcγRIIB, soluble)",further results
"IIA726 (mutant Fn3 domain, yeast surface-displayed clone) (designed binder, It contains a pair of Cys residues in the BC and DE loops; also called yeast surface-displaying IIA726) VSDVPGDLEVVAATPTSLLISWCTHLHWDYYRIFYGETGGNSPVQEFTVPALCPGATISGLKPGVDYTITAYAVTVGGDDWPISINYRTEIDEPSQ",–,–,–,–,binding result [1]: no binding (tested: 100 nM); Kd [2]: 1.2 nM; EC50 (read off the curve) [3]: ~1 nM
"IIA827 (mutant Fn3 domain, yeast surface-displayed clone) (designed binder, Derived from IIA726 by a single mutation, printed '188S'; also called clone IIA827) VSDVPGDLEVVAATPTSLLISWCTHLHWDYYRIFYGETGGNSPVQEFTVPALCPGATISGLKPGVDYTITAYAVTVGGDDWPSSINYRTEIDEPSQ",–,–,–,–,binding result [4]: no binding (tested: 100 nM); Kd [5]: 0.54 nM
"MBP-IIIA537 (designed binder, Fn3 domain as a C-terminal fusion to MBP, expressed in E. coli Rosetta(DE3); For PBMC labelling it was biotinylated and complexed with streptavidin-PE; also called MBP fusion of IIIA537; not shown: limits and vector linker not stat) LGENLYFQSVSDVPRDLEVVVATPTSLLINWDLPFSDSYRITYGETGGNSPVQGFTVPGTESIATISGLKPGVDYTITVYAVASSGSNSYPISINYRTEIDKPSQ",binds,no binding,no binding,no binding,–
"MBP-IIIA626 (designed binder, Fn3 domain as a C-terminal fusion to MBP, expressed in E. coli Rosetta(DE3); For PBMC labelling it was biotinylated and complexed with streptavidin-PE; also called MBP fusion of IIIA626; not shown: limits and vector linker not stat) LGENLYFQSVSDVPRDLEVVVATPTSLLINWDMPFSDSYRIAYGETGGNSPVQEFTVPGTDSLATISGLKPGVDYTITVYAVTSSGSNSYPISINYRTEIDKPSQ",binds,no binding,no binding,no binding,–
"MBP-IIA726 (designed binder, Fn3 domain as a C-terminal fusion to MBP; It was first expressed in Rosetta(DE3), then in Rosetta-gami 2 to promote the disulfide bond between the BC and DE loops; For PBMC labelling it was biotinylated and complexed with streptavidin-PE; also called MBP fusion of IIA726; not shown: limits and vector linker not stat) LGENLYFQSVSDVPGDLEVVAATPTSLLISWCTHLHWDYYRIFYGETGGNSPVQEFTVPALCPGATISGLKPGVDYTITAYAVTVGGDDWPISINYRTEIDEPSQ",–,–,–,no binding,–
"MBP-IIA827 (designed binder, Produced in Rosetta-gami 2; not shown: limits and vector linker not stat) LGENLYFQSVSDVPGDLEVVAATPTSLLISWCTHLHWDYYRIFYGETGGNSPVQEFTVPALCPGATISGLKPGVDYTITAYAVTVGGDDWPSSINYRTEIDEPSQ",–,–,–,–,Kd [9]: 6200 nM; Kd [10]: 850 nM
